Measured values taken from patent US20220283173A1.

Experiments:
[1] = target: Anti-Mx1-AF488; experiment: competitive TR-FRET; unlabelled MxA at 6.250 (unit µ/mL [sic]) displacing Mx1-L4 from Anti-Mx1-AF488
[2] = target: Anti-Mx1-AF488; experiment: competitive TR-FRET; unlabelled MxA at 1.563 (unit µ/mL [sic]) displacing Mx1-L4 from Anti-Mx1-AF488
[3] = target: Anti-Mx1-AF488; experiment: competitive TR-FRET; unlabelled MxA at 0.098 (unit µ/mL [sic]) displacing Mx1-L4 from Anti-Mx1-AF488
[4] = target: Anti-Mx1-AF488; experiment: competitive TR-FRET; unlabelled MxA at 0.006 (unit µ/mL [sic]) displacing Mx1-L4 from Anti-Mx1-AF488
[5] = target: Anti-Mx1-AF488; experiment: competitive TR-FRET; unlabelled MxA at 0.024 (unit µ/mL [sic]) displacing Mx1-L4 from Anti-Mx1-AF488
[6] = target: Anti-Mx1-AF488; experiment: competitive TR-FRET; unlabelled MxA at 0.000 (no competitor, the reference R0) with Mx1-L4 and Anti-Mx1-AF488
[7] = target: Anti-Mx1-AF488; experiment: competitive TR-FRET; unlabelled MxA at 25.000 (unit µ/mL [sic]) displacing Mx1-L4 from Anti-Mx1-AF488
[8] = target: Anti-Mx1-AF488; experiment: competitive TR-FRET; unlabelled MxA at 0.391 (unit µ/mL [sic]) displacing Mx1-L4 from Anti-Mx1-AF488

B1: Human myxovirus resistance protein A (MxA), unlabelled standard (protein)
chain: MVVSEVDIAKADPAAASHPLLLNGDATVAQKNPGSVAENNLCSQYEEKVRPCIDLIDSLRALGVEQDLALPAIAVIGDQSSGKSSVLEALSGVALPRGSGIVTRCPLVLKLKKLVNEDKWRGKVSYQDYEIEISDASEVEKEINKAQNAIAGEGMGISHELITLEISSRDVPDLTLIDLPGITRVAVGNQPADIGYKIKTLIKKYIQRQETISLVVVPSNVDIATTEALSMAQEVDPEGDRTIGILTKPDLVDKGTEDKVVDVVRNLVFHLKKGYMIVKCRGQQEIQDQLSLSEALQREKIFFENHPYFRDLLEEGKATVPCLAEKLTSELITHICKSLPLLENQIKETHQRITEELQKYGVDIPEDENEKMFFLIDKVNAFNQDITALMQGEETVGEEDIRLFTRLRHEFHKWSTIIENNFQEGHKILSRKIQKFENQYRGRELPGFVNYRTFETIVKQQIKALEEPAVDMLHTVTDMVRLAFTDVSIKNFEEFFNLHRTAKSKIEDIRAEQEREGEKLIRLHFQMEQIVYCQDQVYRGALQKVREKELEEEKKKKSWDFGAFQSSSATDSSMEEIFQHLMAYHQEASKRISSHIPLIIQFFMLQTYGQQLQKAMLQLLQDKDTYSWLLKERSDTSDKRKFLKERLARLTQARRRLAQFPG
R/R0 [1]: 0.43 | R/R0 [2]: 0.72 | R/R0 [3]: 0.97 | R/R0 [4]: 0.94 | R/R0 [5]: 0.99 | R/R0 [6]: 1 | R/R0 [7]: 0.32 | R/R0 [8]: 0.89
